Test results from patent publication US20070202121A1 (University of California, published 2007).

Target: T1, H-2 D^b MHC class I molecule (mouse, UniProt P01887 21-119; P01899 25-362, limits assumed)
T1 construct: whole, on cells
T1 sequence (MHC heavy, looked up): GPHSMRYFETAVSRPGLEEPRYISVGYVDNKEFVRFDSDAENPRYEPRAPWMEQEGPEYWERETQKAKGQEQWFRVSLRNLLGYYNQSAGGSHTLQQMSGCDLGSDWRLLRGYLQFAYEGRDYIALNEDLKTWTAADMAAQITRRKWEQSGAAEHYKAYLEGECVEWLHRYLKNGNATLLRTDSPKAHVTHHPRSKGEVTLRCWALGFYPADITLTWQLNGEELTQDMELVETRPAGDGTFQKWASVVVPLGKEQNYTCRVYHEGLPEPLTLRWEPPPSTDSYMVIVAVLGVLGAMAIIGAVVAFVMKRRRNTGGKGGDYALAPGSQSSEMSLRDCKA
T1 sequence (b2m, looked up): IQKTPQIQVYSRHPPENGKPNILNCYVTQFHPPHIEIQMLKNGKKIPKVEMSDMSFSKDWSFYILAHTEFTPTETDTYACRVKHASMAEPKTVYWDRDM
Assay: synthetic peptide pulsed on L cells expressing H-2 D^b, read by T cell hybridoma activation

binding result: binds
B1: SPAS-1 peptide STHVNHLHC (peptide)
peptide: STHVNHLHC
notes: Encoded by nucleotides 730 to 756 of the SPAS-1 (T) cDNA from TRAMP-C2 tumor cells
